In one data set the target is RXRa (Homo sapiens, UniProt P19793). As to the kind of experiment: no ligand; PBM; 180 nM; PBS pH 7.4, 2% milk, 0.02% Triton X-100, 1 mM DTT, BSA, 0.4 mg/ml salmon testes DNA. Conditions: tags: His cleaved; chain copies: 2; label: surface-attached array probe.
Another data set concerns the target RARg:RXRa (Homo sapiens, UniProt P13631;P19793 full;full). The data set can be described thus: no ligand; PBM; 270 nM : 90 nM RXRa; PBS pH 7.4, 2% milk, 0.02% Triton X-100, 1 mM DTT, BSA, 0.4 mg/ml salmon testes DNA. The conditions noted are these: tags: His kept;His cleaved; copies: 1;1; label: surface-attached array probe. The method in brief:
(§1)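 Random background probes are the reference for binding z-scores. These scores derive from regression-normalized fluorescence on custom Agilent 4×180K protein-binding microarrays incubated 1 h with ligand-free nuclear receptor dimers. Binding was detected with antibodies against each partner (one per run).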

The target in another data set is PPARa:RXRa (Homo sapiens, UniProt Q07869;P19793 full;full). The data set is described as above. Conditions: tags: GST kept;His cleaved; copies: 1;1; label: surface-attached array probe. The method in brief:
as §1

The target in the next data set is FXR:RXRa (Homo sapiens, UniProt Q96RI1;P19793 full;full). Described as above. The conditions noted are these: tags: His kept;His cleaved; copies: 1;1; label: surface-attached array probe. An outline of the steps: as §1
FXR:RXRa, sequence (Q96RI1 whole entry, chain 1 of 2): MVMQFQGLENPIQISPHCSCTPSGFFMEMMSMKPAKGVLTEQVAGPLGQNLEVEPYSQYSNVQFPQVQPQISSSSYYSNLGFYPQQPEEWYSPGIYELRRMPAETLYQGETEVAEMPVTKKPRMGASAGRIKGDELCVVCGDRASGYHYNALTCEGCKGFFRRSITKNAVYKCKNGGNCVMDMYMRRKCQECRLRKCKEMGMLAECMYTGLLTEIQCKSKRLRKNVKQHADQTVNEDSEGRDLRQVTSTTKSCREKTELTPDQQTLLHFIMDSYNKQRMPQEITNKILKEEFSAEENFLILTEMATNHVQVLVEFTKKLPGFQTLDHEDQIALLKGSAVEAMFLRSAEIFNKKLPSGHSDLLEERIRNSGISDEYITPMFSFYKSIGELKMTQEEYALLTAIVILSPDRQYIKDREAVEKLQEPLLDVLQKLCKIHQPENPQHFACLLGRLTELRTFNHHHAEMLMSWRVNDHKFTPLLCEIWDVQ
FXR:RXRa, sequence (P19793 whole entry, chain 2 of 2): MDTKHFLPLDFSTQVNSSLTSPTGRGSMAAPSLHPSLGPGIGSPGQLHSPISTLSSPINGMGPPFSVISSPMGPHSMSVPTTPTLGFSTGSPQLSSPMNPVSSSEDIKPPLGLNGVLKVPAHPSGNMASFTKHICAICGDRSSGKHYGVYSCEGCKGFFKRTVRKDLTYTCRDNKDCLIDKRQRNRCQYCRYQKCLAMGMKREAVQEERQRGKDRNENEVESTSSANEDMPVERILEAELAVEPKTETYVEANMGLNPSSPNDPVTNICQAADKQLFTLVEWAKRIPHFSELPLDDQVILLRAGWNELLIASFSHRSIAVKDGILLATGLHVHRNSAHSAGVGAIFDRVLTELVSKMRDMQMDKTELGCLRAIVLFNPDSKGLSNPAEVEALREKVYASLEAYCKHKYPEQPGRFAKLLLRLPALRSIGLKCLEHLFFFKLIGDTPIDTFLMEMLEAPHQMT
The target in a further data set is LXRa:RXRa (Homo sapiens, UniProt Q13133;P19793 full;full). The data set is described as above. The conditions noted are these: tags: His kept;His cleaved; copies: 1;1; label: surface-attached array probe. The method in brief:
as §1

Another data set has as its target LXRb:RXRa (Homo sapiens, UniProt P55055;P19793 full;full). The description is as above. The conditions noted are these: tags: His kept;His cleaved; copies: 1;1; label: surface-attached array probe. The method in brief: as §1
The target of another data set is RARb:RXRa (Homo sapiens, UniProt P10826;P19793 full;full). The data set is described as above. The conditions noted are these: tags: His kept;His cleaved; copies: 1;1; label: surface-attached array probe. The method in brief: as §1
RARb:RXRa, sequence (P10826 whole entry, chain 1 of 2): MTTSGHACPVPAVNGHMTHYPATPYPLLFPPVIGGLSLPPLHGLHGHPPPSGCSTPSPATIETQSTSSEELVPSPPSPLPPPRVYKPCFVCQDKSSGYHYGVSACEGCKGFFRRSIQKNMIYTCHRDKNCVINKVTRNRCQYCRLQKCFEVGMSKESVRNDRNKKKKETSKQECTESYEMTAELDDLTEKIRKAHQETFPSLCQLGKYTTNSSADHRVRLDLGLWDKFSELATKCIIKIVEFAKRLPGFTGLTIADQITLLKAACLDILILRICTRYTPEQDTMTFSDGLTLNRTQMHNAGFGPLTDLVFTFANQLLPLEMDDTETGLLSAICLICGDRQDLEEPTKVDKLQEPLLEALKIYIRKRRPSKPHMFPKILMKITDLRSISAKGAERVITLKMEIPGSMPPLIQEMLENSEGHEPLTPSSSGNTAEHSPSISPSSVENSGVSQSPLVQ
RARb:RXRa, sequence (P19793 whole entry, chain 2 of 2): as the sequence (P19793 whole entry, chain 2 of 2) above

LXRa:RXRa, sequence (Q13133 whole entry, chain 1 of 2): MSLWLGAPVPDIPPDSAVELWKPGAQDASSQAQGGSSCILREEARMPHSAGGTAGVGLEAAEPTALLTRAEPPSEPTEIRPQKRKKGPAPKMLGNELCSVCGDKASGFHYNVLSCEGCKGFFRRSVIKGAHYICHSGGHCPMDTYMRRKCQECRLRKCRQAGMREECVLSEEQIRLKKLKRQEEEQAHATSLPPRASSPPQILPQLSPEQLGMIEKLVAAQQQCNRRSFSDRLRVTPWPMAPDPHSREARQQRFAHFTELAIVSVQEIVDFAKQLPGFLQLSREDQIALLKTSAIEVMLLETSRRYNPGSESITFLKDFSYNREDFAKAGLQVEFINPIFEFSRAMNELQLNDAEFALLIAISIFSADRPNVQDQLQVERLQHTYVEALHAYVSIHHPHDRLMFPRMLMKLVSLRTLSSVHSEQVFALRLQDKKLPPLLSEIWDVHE
LXRa:RXRa, sequence (P19793 whole entry, chain 2 of 2): as the sequence (P19793 whole entry, chain 2 of 2) above
RXRa, sequence (P19793 whole entry): as the sequence (P19793 whole entry, chain 2 of 2) above
LXRb:RXRa, sequence (P55055 whole entry, chain 1 of 2): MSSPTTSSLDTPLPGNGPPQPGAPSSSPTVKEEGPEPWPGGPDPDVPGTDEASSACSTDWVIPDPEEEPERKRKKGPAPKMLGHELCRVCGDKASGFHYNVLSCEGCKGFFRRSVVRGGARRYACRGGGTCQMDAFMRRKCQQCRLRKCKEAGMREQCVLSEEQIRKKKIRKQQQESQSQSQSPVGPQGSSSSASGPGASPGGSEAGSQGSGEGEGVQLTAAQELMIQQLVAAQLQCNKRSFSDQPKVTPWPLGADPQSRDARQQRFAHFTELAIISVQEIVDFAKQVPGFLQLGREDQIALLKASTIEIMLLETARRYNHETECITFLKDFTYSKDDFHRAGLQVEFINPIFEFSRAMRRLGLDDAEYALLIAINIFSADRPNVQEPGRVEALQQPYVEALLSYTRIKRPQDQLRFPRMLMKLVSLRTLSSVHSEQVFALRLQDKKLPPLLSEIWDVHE
LXRb:RXRa, sequence (P19793 whole entry, chain 2 of 2): as the sequence (P19793 whole entry, chain 2 of 2) above
PPARa:RXRa, sequence (Q07869 whole entry, chain 1 of 2): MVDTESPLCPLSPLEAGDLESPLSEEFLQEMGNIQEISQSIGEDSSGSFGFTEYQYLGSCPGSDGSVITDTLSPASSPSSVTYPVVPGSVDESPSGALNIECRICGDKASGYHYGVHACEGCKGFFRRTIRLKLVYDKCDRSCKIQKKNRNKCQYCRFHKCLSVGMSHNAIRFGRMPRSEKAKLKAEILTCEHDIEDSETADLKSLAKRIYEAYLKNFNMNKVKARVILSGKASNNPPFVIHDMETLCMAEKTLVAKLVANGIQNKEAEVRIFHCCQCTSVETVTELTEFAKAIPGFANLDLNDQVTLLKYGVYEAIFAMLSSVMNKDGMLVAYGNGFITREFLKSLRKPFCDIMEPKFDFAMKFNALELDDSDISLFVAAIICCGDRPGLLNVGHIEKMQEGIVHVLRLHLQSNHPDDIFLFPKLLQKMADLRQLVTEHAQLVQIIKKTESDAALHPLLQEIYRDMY
PPARa:RXRa, sequence (P19793 whole entry, chain 2 of 2): as the sequence (P19793 whole entry, chain 2 of 2) above
RARg:RXRa, sequence (P13631 whole entry, chain 1 of 2): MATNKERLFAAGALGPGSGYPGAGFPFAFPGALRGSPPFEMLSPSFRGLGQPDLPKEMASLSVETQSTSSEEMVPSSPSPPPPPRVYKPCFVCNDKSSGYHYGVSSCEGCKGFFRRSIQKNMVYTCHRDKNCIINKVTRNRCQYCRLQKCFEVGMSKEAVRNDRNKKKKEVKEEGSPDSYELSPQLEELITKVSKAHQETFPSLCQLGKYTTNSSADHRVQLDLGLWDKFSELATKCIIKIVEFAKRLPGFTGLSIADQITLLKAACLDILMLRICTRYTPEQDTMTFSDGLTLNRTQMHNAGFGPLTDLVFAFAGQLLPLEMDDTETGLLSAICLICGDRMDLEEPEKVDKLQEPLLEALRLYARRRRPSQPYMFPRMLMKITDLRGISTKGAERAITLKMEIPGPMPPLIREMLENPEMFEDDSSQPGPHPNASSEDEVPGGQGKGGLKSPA
RARg:RXRa, sequence (P19793 whole entry, chain 2 of 2): as the sequence (P19793 whole entry, chain 2 of 2) above

B1: NRC3_wobSeed133_DR5_C7A_o1 (dsDNA)
DNA 1: GCCGTCAAAGGTCAATGCTAGGTCAGTGAAAGCATTGCGATTGACAGCGTAGAATGAAGG
DNA 2: CCTTCATTCTACGCTGTCAATCGCAATGCTTTCACTGACCTAGCATTGACCTTTGACGGC
As to B1, the binding signal was 8.08 PBM z-score against 500 random probes with RXRa; 8.73 PBM z-score against 500 random probes with RARg:RXRa; 6.56 PBM z-score against 500 random probes in the data set with PPARa:RXRa; 8.38 PBM z-score against 500 random probes with FXR:RXRa; 6.75 PBM z-score against 500 random probes with LXRa:RXRa; 6.22 PBM z-score against 500 random probes in the data set with LXRb:RXRa. Also, the binding signal with RARb:RXRa is 6.04 PBM z-score against 500 random probes.

B2: NRC3_wobSeed10_DR0_G14A_o1 (dsDNA)
DNA 1: GCATCGAAAGGTCAAGGTGAGTATAGAGAAAGGGAAGCGATTGACAGCGTAGAATGAAGG
DNA 2: CCTTCATTCTACGCTGTCAATCGCTTCCCTTTCTCTATACTCACCTTGACCTTTCGATGC
In the case of B2, the binding signal in the data set with RXRa is 8.13 PBM z-score against 500 random probes; in the data set with RARg:RXRa, 7.61 PBM z-score against 500 random probes; with PPARa:RXRa, 7.41 PBM z-score against 500 random probes; in the data set with FXR:RXRa it was 8.27 PBM z-score against 500 random probes; in the data set with LXRa:RXRa, 7.08 PBM z-score against 500 random probes; with LXRb:RXRa, 5.9 PBM z-score against 500 random probes. Also, the binding signal with RARb:RXRa is 6.24 PBM z-score against 500 random probes.

B3: NRC3_random_hg19_29_o1 (dsDNA)
DNA 1: GCGGTTGAATGCCCAGATAGTACACACACCAAGCTTGCGATTGACAGCGTAGAATGAAGG
DNA 2: CCTTCATTCTACGCTGTCAATCGCAAGCTTGGTGTGTGTACTATCTGGGCATTCAACCGC
As for B3, the binding signal with LXRa:RXRa was -0.08 PBM z-score against 500 random probes; with LXRb:RXRa it was 0.12 PBM z-score against 500 random probes; in the data set with RARb:RXRa, -0.14 PBM z-score against 500 random probes.

B4: NRC3_wobSeed73_DR3_C7A_o1 (dsDNA)
DNA 1: GCCAAAATAGGTCACAGAGGTCAAAGTCCGTGCGTAGCGATTGACAGCGTAGAATGAAGG
DNA 2: CCTTCATTCTACGCTGTCAATCGCTACGCACGGACTTTGACCTCTGTGACCTATTTTGGC
Take B4: the binding signal with RARg:RXRa is 7.78 PBM z-score against 500 random probes; with PPARa:RXRa it was 6.98 PBM z-score against 500 random probes; in the data set with FXR:RXRa, 8.03 PBM z-score against 500 random probes; with LXRa:RXRa, 7.23 PBM z-score against 500 random probes; with LXRb:RXRa, 7.08 PBM z-score against 500 random probes; with RARb:RXRa it was 5.84 PBM z-score against 500 random probes.

B5: NRC3_random_hg19_484_o1 (dsDNA)
DNA 1: GCCAGCAAACTAGGAATCAAGAAACTGAGTTCTGGCGCGATTGACAGCGTAGAATGAAGG
DNA 2: CCTTCATTCTACGCTGTCAATCGCGCCAGAACTCAGTTTCTTGATTCCTAGTTTGCTGGC
As for B5, the binding signal is -0.22 PBM z-score against 500 random probes in the data set with RXRa, -0.5 PBM z-score against 500 random probes with PPARa:RXRa, -0.57 PBM z-score against 500 random probes with LXRa:RXRa and -0.51 PBM z-score against 500 random probes with LXRb:RXRa.

B6: NRC3_wobSeed21_DR0_T11G_o1 (dsDNA)
DNA 1: GCCGTCAAAGGTCAAGGTAACGTAACAGAAAGCAGCGCGATTGACAGCGTAGAATGAAGG
DNA 2: CCTTCATTCTACGCTGTCAATCGCGCTGCTTTCTGTTACGTTACCTTGACCTTTGACGGC
As to B6, the binding signal was 8.42 PBM z-score against 500 random probes in the data set with RXRa; 7.8 PBM z-score against 500 random probes in the data set with RARg:RXRa; 6.99 PBM z-score against 500 random probes with PPARa:RXRa; 9.02 PBM z-score against 500 random probes with FXR:RXRa; 6.81 PBM z-score against 500 random probes in the data set with LXRa:RXRa; 6.12 PBM z-score against 500 random probes with LXRb:RXRa. In addition, the binding signal with RARb:RXRa was 6.57 PBM z-score against 500 random probes.

B7: NRC3_wobSeed130_DR5_G14A_o1 (dsDNA)
DNA 1: GCCTCGAAAGGTCATGCTCAGGTGAGTATACCAAACGCGATTGACAGCGTAGAATGAAGG
DNA 2: CCTTCATTCTACGCTGTCAATCGCGTTTGGTATACTCACCTGAGCATGACCTTTCGAGGC
For the molecule B7, the binding signal in the data set with RXRa was 8.8 PBM z-score against 500 random probes; with RARg:RXRa it was 7.89 PBM z-score against 500 random probes; in the data set with PPARa:RXRa, 6.66 PBM z-score against 500 random probes; with FXR:RXRa, 8.36 PBM z-score against 500 random probes; with LXRa:RXRa it was 7.19 PBM z-score against 500 random probes; with LXRb:RXRa it was 5.85 PBM z-score against 500 random probes. Also, in the data set with RARb:RXRa, the binding signal was 5.96 PBM z-score against 500 random probes.
